One experiment concerns the target T1, cynomolgus monkey IL-2 (cynomolgus monkey, UniProt Q29615 21-154).
T1 construct: also called cyno IL-2
The experiment is described as follows: BIACORE.

Another experiment concerns the target T2, wild-type human IL-2 (human, UniProt P60568 21-153).
T2 construct: also called hIL-2
Kind of experiment: BIACORE.

In experiment [1] the target is T3, CD25 (IL-2Rα) on the surface of T cells (human, UniProt P01589 22-272).
T3 construct: whole, on cells; also called cell surface CD25
T3 sequence (looked up): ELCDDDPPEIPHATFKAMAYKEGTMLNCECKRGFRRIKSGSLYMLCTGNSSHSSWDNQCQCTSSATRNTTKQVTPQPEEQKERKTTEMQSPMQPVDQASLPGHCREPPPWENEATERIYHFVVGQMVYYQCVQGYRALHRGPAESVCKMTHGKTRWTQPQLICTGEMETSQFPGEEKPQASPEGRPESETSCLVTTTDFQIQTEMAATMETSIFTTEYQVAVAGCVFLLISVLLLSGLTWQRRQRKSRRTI
Kind of experiment: flow cytometry, binding to CD25 on the surface of activated T cells.

Experiment [2] addresses T3, CD25 (IL-2Rα) on the surface of T cells. The experiment is described as follows: binding to cell surface CD25 (method not described).

B1: 9D6 (antibody, V domains shown)
VH: EVQLVQSGAEVKKPGESLKISCKGSGYRFTSYWIGWVRQMPGKGLEWMGIIHPGDSDTRYSPSFQGQVTISADKSISTAYLQWSSLKASDTAIYYCTRQGRSFYYYGMDVWGQGTTVTVSS
VL: DIVMTQTPLSLPVTPGEPASISCRSSQSLLDSDEGNTYLDWYLQKPGQSPQLLIYTLSYRASGVPDRFSGTGSDTDFTLKISRVEAEDVGVYYCMQRIEFPLTFGGGTKVEIK
Take B1: the results for the Kd with cynomolgus monkey IL-2 and with wild-type human IL-2 were roughly 0.016 nM and roughly 0.041 nM, respectively.

B2: 14D7 (antibody, V domains shown)
VH: QVQLQESGPGLVKPSQTLSLTCTVSGGSISSGGYYWNWIRQHPGKGLEWIGYIYYSGNTHYNPSLKSRVTISVDTSKNQFSLKLSSVIAADTAVYYCARDWGRDAFDIWGQGTMVTVSS
VL: DIQMTQSPSSLSASVGDRVTITCRASQTISSYLNWYQQKPGKAPKVLIYAASSFQSGVPSRFSGSGSGTDFTLTISSLQPEDFATYYCQQSHYIPRTFGQGTKVEIK
Take B2: the figures for the Kd in the experiment with cynomolgus monkey IL-2 and in the experiment with wild-type human IL-2 were roughly 0.14 nM and roughly 0.3 nM, respectively.

B3: 26C12 (antibody, V domains shown)
VH: EVQLVQSGAEVKKPGESLKISCKGSGYRFTSYWIGWVRQMPGKGLEWMGIIFPGDSDTRYSPSFQGQVTISADKSITTAYLQWSSLKASDTAIYYCARHGHGSSSGRTYYYGLDVWGQGTTVTVSS
VL: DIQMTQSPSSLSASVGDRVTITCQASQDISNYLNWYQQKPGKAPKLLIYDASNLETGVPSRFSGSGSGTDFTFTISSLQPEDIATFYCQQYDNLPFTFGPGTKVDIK
In the case of B3, the figures for the equilibrium dissociation constant (Kd) in the experiment with cynomolgus monkey IL-2 and in the experiment with wild-type human IL-2 were roughly 0.13 nM and roughly 0.27 nM, respectively.

B4: HaMut1D (V69A, Q74P, N88D, C125A) (ligand)
chain: APTSSSTKKTQLQLEHLLLDLQMILNGINNYKNPKLTRMLTFKFYMPKKATELKHLQCLEEELKPLEEALNLAPSKNFHLRPRDLISDINVIVLELKGSETTFMCEYADETATIVEFLNRWITFAQSIISTLT
notes: not shown: C-terminal FLAG and poly-His tag
For B4, the dissociation constant Kd in experiment [1] is roughly 2 nM.

B5: HaMut4D (T37A, V69A, Q74P, N88D, C125A) (ligand)
chain: APTSSSTKKTQLQLEHLLLDLQMILNGINNYKNPKLARMLTFKFYMPKKATELKHLQCLEEELKPLEEALNLAPSKNFHLRPRDLISDINVIVLELKGSETTFMCEYADETATIVEFLNRWITFAQSIISTLT
notes: human IL-2 mutein; not shown: C-terminal FLAG and poly-His tag
In the case of B5, in experiment [1], the binding result is “binds”.

B6: HaMut5D (K48E, V69A, Q74P, N88D, C125A) (ligand)
chain: APTSSSTKKTQLQLEHLLLDLQMILNGINNYKNPKLTRMLTFKFYMPEKATELKHLQCLEEELKPLEEALNLAPSKNFHLRPRDLISDINVIVLELKGSETTFMCEYADETATIVEFLNRWITFAQSIISTLT
notes: as for B5
As to B6, the binding result in experiment [1] is on record as “binds”.

B7: HaMut3D (K35R, V69A, Q74P, N88D, C125A) (ligand)
chain: APTSSSTKKTQLQLEHLLLDLQMILNGINNYKNPRLTRMLTFKFYMPKKATELKHLQCLEEELKPLEEALNLAPSKNFHLRPRDLISDINVIVLELKGSETTFMCEYADETATIVEFLNRWITFAQSIISTLT
notes: as for B5
With B7, the binding result in experiment [1] is given as “binds”.

B8: HaMut6D (E68D, V69A, Q74P, N88D, C125A) (ligand)
chain: APTSSSTKKTQLQLEHLLLDLQMILNGINNYKNPKLTRMLTFKFYMPKKATELKHLQCLEEELKPLEDALNLAPSKNFHLRPRDLISDINVIVLELKGSETTFMCEYADETATIVEFLNRWITFAQSIISTLT
notes: as for B5
As for B8, the binding result in experiment [1] is “binds”.

B9: HaMut7D (N71R, V69A, Q74P, N88D, C125A) (ligand)
chain: APTSSSTKKTQLQLEHLLLDLQMILNGINNYKNPKLTRMLTFKFYMPKKATELKHLQCLEEELKPLEEALRLAPSKNFHLRPRDLISDINVIVLELKGSETTFMCEYADETATIVEFLNRWITFAQSIISTLT
notes: as for B5
In turn, B9 displayed a dissociation constant (Kd) in experiment [1] of roughly 0.2 nM.

B10: HaMut2D (N30S, V69A, Q74P, N88D, C125A) (ligand)
chain: APTSSSTKKTQLQLEHLLLDLQMILNGINSYKNPKLTRMLTFKFYMPKKATELKHLQCLEEELKPLEEALNLAPSKNFHLRPRDLISDINVIVLELKGSETTFMCEYADETATIVEFLNRWITFAQSIISTLT
notes: as for B5
Consider B10, for which the binding result in experiment [1] was “binds”.

B11: HaMut8D (K35R, K48E, E68D, N88D, C125A) (ligand)
chain: APTSSSTKKTQLQLEHLLLDLQMILNGINNYKNPRLTRMLTFKFYMPEKATELKHLQCLEEELKPLEDVLNLAQSKNFHLRPRDLISDINVIVLELKGSETTFMCEYADETATIVEFLNRWITFAQSIISTLT
notes: as for B5
For the molecule B11, the binding result in experiment [1] was “binds”.

B12: 9B10 (antibody, V domains shown)
VH: QVQLVESGGGVVQPGRSLRLSCAASGFTFSSYAMHWVRQAPGKGLEWVAVIWYDGINKYYADSVKGRFTISRDNSKNTLYLQMNSLRAEDTAVYYCARGSYYDSSGYYFGEDFDYWGQGTLVTVSS
VL: DIVMTQTPLSSPVTLGQPASISCRSSHNLLHSDGNTYLSWLQQRPGQPPRLLIYEISNRFSGVPDRFSGSGAGTDFTLKISRVEAEDVGVYYCMQVTQFPTFGGGTKVEIK
As to B12, the dissociation constant (Kd) is roughly 0.16 nM in the experiment with cynomolgus monkey IL-2 and roughly 0.11 nM with wild-type human IL-2.

B13: 18F3 (antibody, V domains shown)
VH: QVQLQESGPGLVKPSQTLSLTCTVSGGSISSGGYYWSWIRQHPGKGLEWIGYIYYSGSTDYNPSLKSRGIISGDTSKNQFSLKLNSVTAADTAVYYCAREGRFGELGSYYFDYWGQGTLVTVSS
VL: SYELTQPPSVSVSPGQTARIACSGDALPRKFAYWYQQKSGQAPVLVISEDSRRPSGIPERFSGSSSGTMATLTISGAQVEDEADYYCFSTDSSANHRVFGGGTKLTVL
Consider B13, for which the Kd with cynomolgus monkey IL-2 and in the experiment with wild-type human IL-2 was roughly 0.05 nM each time.

B14: 2H11 (antibody, V domains shown)
VH: EVQLVQSGAEVKKPGESLKISCKGSGYNFTTYWIGWVRQMPGKGLEWMGIIYPGDSDTRYSPSFQGQVTISADKSINTAYLQWSSLKASDTAIYYCARDTGYFDYWGQGTLVTVSS
VL: SYELTQPPSVSVSPGQTARITCSGDALPRKFAYWYQQKSGQAPVLVIYEDRKRPSGIPERFSGSSSGTMATLTISGAQVEDEADYYCYSTDRSGDHVVFGGGTKLTVL
B14: the figures for the equilibrium dissociation constant (Kd) in the experiment with cynomolgus monkey IL-2 and in the experiment with wild-type human IL-2 were roughly 0.008 nM and roughly 0.03 nM, respectively.

B15: haD5 fused to the amino terminus of Fc, separated by a GGGGS linker (Fc fusion)
chain: APTSSSTKKTQLQLQNLLLDLQMILNGISNHKNPRLARMLTFKFYMPEKATELKHLQCLEEELKPLEEALRLAPSKNFHLRPRDLISDINVIVLELKGSETTFMCEYADETATIVEFLNRWITFSQSIISTLTGGGGS
notes: IL-2 mutein N-terminal of the Fc; dimer by the Fc; also called haD5 Fc fusion; not shown: IgG1 Fc with an effector function mutation (A327Q, L234A+L235A or N297G)
For B15, the binding result in experiment [2] is listed as “binds”.

B16: 14G7 (antibody, V domains shown)
VH: EVQLVQSGAEVKKPGESLKISCKGSGYSFTDYWIGWVRQMPGKGLEWMGIIYPYDSDTRYSPSFQGQVTLSADKSISTAYLRWSSLKASDTAMYYCARHRGGRSYYYGMDVWGQGTTVTVSS
VL: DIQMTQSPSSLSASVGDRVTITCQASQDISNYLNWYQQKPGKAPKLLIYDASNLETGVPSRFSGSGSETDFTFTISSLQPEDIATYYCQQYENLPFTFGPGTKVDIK
With B16, the dissociation constant (Kd) is roughly 0.13 nM with cynomolgus monkey IL-2 and roughly 0.28 nM with wild-type human IL-2.

B17: 2C3 (antibody, V domains shown)
VH: EVQLVQSGAEVKKPGESLKISCKGSGYRFTSYWIGWVRQMPGKGLEWMGIIYPGDSDTRYSPSFQGQVTISADKSISAAYLQWSSLKASDTAMYYCARQQVAGMLDYWGQGTLVTVSS
VL: EIVLTQSPGTLSLSPGERATLSCRASQSFSSSYLVWYQQKPGQAPRLLIYGASSRATGIPDRFGGSGSGTDFTLTISRLEPEDFAVYYCQQYGSSPLTFGGGTKVEIK
For the molecule B17, in the experiment with cynomolgus monkey IL-2, the equilibrium dissociation constant (Kd) was roughly 0.0012 nM.

B18: 26H7 (antibody, V domains shown)
VH: EVQLVQSGAEVKKPGESLKISCKGSGYRFTNYWIGWVRQMPGKGLEWMGIIYPGDSDTKYSPSFQGQVTISADKSISTAYLQWSSLKASDTAMYYCARHGGYSGRSYYYGMDVWGQGTAVTVSS
VL: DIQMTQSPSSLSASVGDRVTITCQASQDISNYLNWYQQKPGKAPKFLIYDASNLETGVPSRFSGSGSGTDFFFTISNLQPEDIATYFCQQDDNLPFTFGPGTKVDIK
With B18, the Kd in the experiment with cynomolgus monkey IL-2 was roughly 0.31 nM; with wild-type human IL-2, roughly 0.0013 nM.
